In patent US6770740B1, “Crosslinked DNA condesate compositions and gene delivery methods” (The Regents of the University of Michigan, priority 1999, dated 2004):
Bridges are numbered along the chain shown (N, C = ends). Where no end group is shown, it is not given here.

Legend:
[1] = tested on: HepG2 cells; assay: Transient SEAP gene expression over 10 days; type: cell-based; conditions: with chloroquine
Method: HepG2 cells (3×10^5) were plated on 6×35 mm wells and grown for 48 h to 40% confluence in MEM supplemented with 10% fetal calf serum (FCS). Crosslinked DNA condensates (10 μg of DNA in 200 μL) were transfected in triplicate by drop wise addition to cells in 2% FCS either with or without 80 μM chloroquine followed by 5 h incubation, after which the media was replaced with 2 mL of MEM containing 10% fetal calf serum and allowed to incubate for an additional 19 h. Wells were sampled for 10 days at 24 h intervals by removing and freezing (−20° C.) the media and replacing it with 2 mL of fresh 10% FCS MEM.
The amount of SEAP in each well was determined using a chemiluminescent kit. Media (50 μL) was combined with 50 μl of dilution buffer followed by incubation at 65° C. for 30 min to denature endogenous alkaline phosphatase. […] After 30 min, the luminescence was measured with a 10 s integration on a Berthold Lumat™ LB 9501 luminometer. Light units were converted to μg/ml of SEAP using a standard curve constructed by adding known quantities of SEAP to cell homogenate. Background alkaline phosphatase production was determined from a 10 day null control that was subtracted from each data set.

[2] = tested on: HepG2 cells; assay: Luciferase reporter gene expression in HepG2 cells, Example 5; type: cell-based
Method: HepG2 cells (1.5×10^5) were plated on 6×35 mm wells and grown to 40-70% confluency in MEM supplemented with 10% FBS, penicillin and streptomycin (10,000 U/ml), sodium pyruvate (100 mM), and L-glutamine (200 mM). Transfections were performed in MEM (2 ml per 35 mm well) with 2% FBS and 80 μM chloroquine. Peptide DNA condensates (10 μg of DNA in 0.2 ml HBM) were added dropwise to triplicate wells. After a 5 h incubation at 37° C., the media was replaced with MEM supplemented with 10% FBS. After 24 h, cells were washed twice with ice-cold phosphate buffered saline (calcium and magnesium free) and then treated with 0.5 ml of ice-cold lysis buffer (25 mM Tris chloride pH 7.8, 1 mM EDTA, 8 mM magnesium chloride, 1% Triton X-100, 1 mM DTT) for 10 min. The cell lysate was scraped, transferred to 1.5 ml microcentrifuge tubes, and centrifuged for 7 min at 13,000 g at 4° C. to pellet debris.
Lysis buffer (300 μl), sodium-ATP (4 μl of a 180 mM solution, pH 7, 4° C.) and cell lysate (100 μl, 4° C.) were combined in a test tube, briefly mixed and immediately placed in the luminometer. Luciferase relative light units (RLU) were recorded on a Lumat™ LB 9501 (Berthold systems, Germany) with 10 sec integration after automatic injection of 100 μl of 0.5 mM D-luciferin (prepared fresh in lysis buffer without DTT). The RLU were converted in fmol using a standard curve generated by adding a known amount of luciferase (0.01 to 100 fmols with specific activity of 2.5 nU/fmol) to 35 mm wells containing 40-70% confluent HepG2 cells. The cells were processed as described above resulting in a standard curve with an average slope of 7.8×10^6 RLU per fmol of enzyme. Protein concentrations were measured by Bradford assay using bovine serum albumin as a standard (Bradford, 1976). The amount of luciferase recovered in each sample was normalized to milligrams of protein and reported as the mean and standard deviation obtained from triplicate transfections.
LipofectAce™ (Gibco BRL, 1:2.5 w/w dimethyl diotadecylammonium bromide and dioleoyl phosphatidylethanolamine) was used to mediate gene transfection according to the manufacturer's instructions. The ratio of DNA to LepofectAce™ was optimized for HepG2 cells. An optimal DNA/LipofectAce™ ratio was achieved by dissolving 10 μg of DNA in 100 μl serum free media (SFM) followed by adding 60 μl of LipofectAce™ prepared in 140 μl of SFM. The LipfectAce™ DNA complex was then diluted with 1.7 ml of SFM and used to transfect HepG2 cells for 5 h followed by replacing the transfecting media with media supplemented with 10% FBS. The cells were incubated for a total of 24 h, harvested and analyzed for luciferase as described above.

[3] = QELS particle size and zeta potential of cross-linking peptide DNA condensates, Example 5; type: physicochemical
Method: The particle size of each peptide DNA condensate was determined by quasielastic light scattering (QELS) at a scatter angle of both 15° and 90° on a Brookhaven ZetaPlus™ particle sizer. Condensates were prepared at a DNA concentration of 50 μg/ml in 400 μl HBM at a stoichiometry of 0.4 nmol of peptide per μg of DNA corresponding to a charge ratio of approximately 2:1 for each. The mean diameter and population distribution were computed from the diffusion coefficient using a unimodal cummulant analysis supplied by the manufacturer.
The particle size and zeta peptide IV DNA condensates were determined by titrating 7.5 to 37.5 nmol of peptide with 75 μg of DNA in 1.5 ml of HBM to produce 50 μg/ml DNA condensates with charge ratio of 0.5-2.5. The zeta potential was averaged from 10 determines.

With “Lys18-Trp-Cys-S-S-Cys-Trp-Lys18 (KKKKKKKKKKKKKKKKKKWCCWKKKKKKKKKKKKKKKKKK; disulfide 20-21; also: disulfide-linked dimer of two CWK18 chains, no peptide bond between positions 20 and 21) [DiCWK18]” the “more gene product relative to CWK18 DNA condensates” value [1] was “approximately 10%”, the “slope of the day 7-10 cumulative SEAP expression” value ([1]; HMW polylysine panel (FIG. 29B)) was 32.7 ng/mL and the “inferiority to polylysine1007 as a DNA carrier (gene expression)” value [2] was 5 fold. For the same substance, the “Particle Size Mean Diameter, Oxidized, 15°” value ([3]; HBM after 2 h incubation, 50 μg/ml DNA, 0.4 nmol peptide per μg DNA, scattering angle 15°) was 74 nm, the “Particle Size Mean Diameter, Oxidized, 90°” value ([3]; HBM after 2 h incubation, 50 μg/ml DNA, 0.4 nmol peptide per μg DNA, scattering angle 90°) was 68 nm and the “Particle Size Mean Diameter, Saline” value ([3]; HBM with added saline (0.15 M) after 15 min) was 171 nm. For the same substance, the “Particle Size Mean Diameter, Reduced” value ([3]; following addition of TCEP (1 mM)) was 153 nm.
